# Source: paper PMC1561584
# Biological target: LexA-UNC-119 (C. elegans) (UniProt Q10658)
# Experiment: two-hybrid; LexA baits and GAD preys in strain L40; data not shown
# UniProt Q10658, sequence (Q10658 whole entry): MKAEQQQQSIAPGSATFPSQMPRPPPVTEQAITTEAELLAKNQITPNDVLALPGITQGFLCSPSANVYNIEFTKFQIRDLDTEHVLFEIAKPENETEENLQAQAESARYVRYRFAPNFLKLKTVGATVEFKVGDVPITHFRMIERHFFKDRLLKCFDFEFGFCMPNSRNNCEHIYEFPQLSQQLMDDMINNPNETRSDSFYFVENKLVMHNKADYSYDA
substance,measurement,value
ARL-3Δ17 (domain or fragment),strength of interaction relative to ARL-3 FL (β-galactosidase activity) (fold of ARL-3 FL),0.2
